Source: article PMC10036536, “Optimizing human α-galactosidase for treatment of Fabry disease” (Scientific Reports, 2023)

Target: the molecule itself
Assay: SEC; protein eluted from concanavalin A-Sepharose; Superdex 200 PG 26/60, 2.4 mM Na2HPO4, 17.6 mM NaH2PO4 (pH 6.0), 150 mM NaCl, 0.02% Tween-20

B1: recombinant human α-galactosidase A (GLA) (enzyme, UniProt P06280 32-429, looked up)
chain: LDNGLARTPTMGWLHWERFMCNLDCQEEPDSCISEKLFMEMAELMVSEGWKDAGYEYLCIDDCWMAPQRDSEGRLQADPQRFPHGIRQLANYVHSKGLKLGIYADVGNKTCAGFPGSFGYYDIDAQTFADWGVDLLKFDGCYCDSLENLADGYKHMSLALNRTGRSIVYSCEWPLYMWPFQKPNYTEIRQYCNHWRNFADIDDSWKSIKSILDWTSFNQERIVDVAGPGGWNDPDMLVIGNFGLSWNQQVTQMALWAIMAAPLFMSNDLRHISPQAKALLQDKDVIAINQDPLGKQGYQLRQGDNFEVWERPLSGLAWAVAMINRQEIGGPRSYTIAVASLGKGVACNPACFITQLLPVKRKLGFYEWTSRLRSHINPTGTVLLQLENTMQMSLKDLL
notes: α-galactosidase A, human, UniProt P06280; The methods say fractions of the homodimer were pooled; also called rhGLA
stoichiometry N: 2
